# Test results: patent EP4772193A1 (Teijin Pharma Limited, dated 2026)
# T1: recombinant human soluble gpNMB (recombinant human gpNMB-FLAG-His) (human, UniProt Q14956 23-498)
# T1 sequence: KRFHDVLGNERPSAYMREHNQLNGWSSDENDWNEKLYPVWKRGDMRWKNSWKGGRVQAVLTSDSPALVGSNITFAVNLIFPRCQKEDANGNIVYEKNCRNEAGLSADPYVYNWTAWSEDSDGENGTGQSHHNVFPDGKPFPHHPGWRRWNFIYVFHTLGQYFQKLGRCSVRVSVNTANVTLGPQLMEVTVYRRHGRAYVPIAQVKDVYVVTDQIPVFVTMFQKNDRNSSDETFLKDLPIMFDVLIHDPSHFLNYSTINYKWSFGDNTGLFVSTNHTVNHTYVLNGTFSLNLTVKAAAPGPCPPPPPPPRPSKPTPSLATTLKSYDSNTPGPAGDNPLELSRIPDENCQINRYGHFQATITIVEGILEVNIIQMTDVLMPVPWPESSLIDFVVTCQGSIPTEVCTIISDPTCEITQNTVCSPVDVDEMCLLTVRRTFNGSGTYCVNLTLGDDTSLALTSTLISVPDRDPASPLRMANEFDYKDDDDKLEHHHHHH
# Experiments:
# [1] = biological target: T1, recombinant human soluble gpNMB …; assay: antigen ELISA, vs hGPN18-2_H2L3
# [2] = biological target: T1, recombinant human soluble gpNMB …; assay: antigen ELISA
binder,measurement,setting,value
"hGPN18-2_H2L3 VL E39A (antibody, V domains shown) VH: QVQLVQSGPGLVQPTQTLTLTCSFSGFSLSTSVMGVGWIRQPSGKGLEWLADIWWDDDKDYNPSLKSRLTISKDTSKNQVVLTMTNMDTVDTATYYCARTYYSNYEYYGMDYWGQGTLVTVSS VL: DIVMTQSPDSLAVSLGERATINCRSSQTIILSNGNTYLAWYQQKPGQPPKLLIYKVSNRFSGVPDRFSGSGSGTDFTLTISSLQAEDVAVYYCFQGSHVPFTFGSGTKLEIKR",Relative binding activity,[1],0.1
same,EC50,[2],84.8 nM
"hGPN18-2_H2L3 VL F60A (antibody, V domains shown) VH: QVQLVQSGPGLVQPTQTLTLTCSFSGFSLSTSVMGVGWIRQPSGKGLEWLADIWWDDDKDYNPSLKSRLTISKDTSKNQVVLTMTNMDTVDTATYYCARTYYSNYEYYGMDYWGQGTLVTVSS VL: DIVMTQSPDSLAVSLGERATINCRSSQTIILSNGNTYLEWYQQKPGQPPKLLIYKVSNRASGVPDRFSGSGSGTDFTLTISSLQAEDVAVYYCFQGSHVPFTFGSGTKLEIKR",Relative binding activity,[1],1.12
same,EC50,[2],2.28 nM
"hGPN18-2_H2L3 VL N58A (antibody, V domains shown) VH: QVQLVQSGPGLVQPTQTLTLTCSFSGFSLSTSVMGVGWIRQPSGKGLEWLADIWWDDDKDYNPSLKSRLTISKDTSKNQVVLTMTNMDTVDTATYYCARTYYSNYEYYGMDYWGQGTLVTVSS VL: DIVMTQSPDSLAVSLGERATINCRSSQTIILSNGNTYLEWYQQKPGQPPKLLIYKVSARFSGVPDRFSGSGSGTDFTLTISSLQAEDVAVYYCFQGSHVPFTFGSGTKLEIKR",Relative binding activity,[1],1.04
same,EC50,[2],2.86 nM
"hGPN18-2_H2L3 VL N35A (antibody, V domains shown) VH: QVQLVQSGPGLVQPTQTLTLTCSFSGFSLSTSVMGVGWIRQPSGKGLEWLADIWWDDDKDYNPSLKSRLTISKDTSKNQVVLTMTNMDTVDTATYYCARTYYSNYEYYGMDYWGQGTLVTVSS VL: DIVMTQSPDSLAVSLGERATINCRSSQTIILSNGATYLEWYQQKPGQPPKLLIYKVSNRFSGVPDRFSGSGSGTDFTLTISSLQAEDVAVYYCFQGSHVPFTFGSGTKLEIKR",Relative binding activity,[1],1.11
same,EC50,[2],3.08 nM
"hGPN18-2_H2L3 VL Q27A (antibody, V domains shown) VH: QVQLVQSGPGLVQPTQTLTLTCSFSGFSLSTSVMGVGWIRQPSGKGLEWLADIWWDDDKDYNPSLKSRLTISKDTSKNQVVLTMTNMDTVDTATYYCARTYYSNYEYYGMDYWGQGTLVTVSS VL: DIVMTQSPDSLAVSLGERATINCRSSATIILSNGNTYLEWYQQKPGQPPKLLIYKVSNRFSGVPDRFSGSGSGTDFTLTISSLQAEDVAVYYCFQGSHVPFTFGSGTKLEIKR",Relative binding activity,[1],1.04
same,EC50,[2],4 nM
"hGPN18-2_H2L3 VL L38A (antibody, V domains shown) VH: QVQLVQSGPGLVQPTQTLTLTCSFSGFSLSTSVMGVGWIRQPSGKGLEWLADIWWDDDKDYNPSLKSRLTISKDTSKNQVVLTMTNMDTVDTATYYCARTYYSNYEYYGMDYWGQGTLVTVSS VL: DIVMTQSPDSLAVSLGERATINCRSSQTIILSNGNTYAEWYQQKPGQPPKLLIYKVSNRFSGVPDRFSGSGSGTDFTLTISSLQAEDVAVYYCFQGSHVPFTFGSGTKLEIKR",Relative binding activity,[1],1.06
same,EC50,[2],4.15 nM
"hGPN18-2_H2L3 VL I30A (antibody, V domains shown) VH: QVQLVQSGPGLVQPTQTLTLTCSFSGFSLSTSVMGVGWIRQPSGKGLEWLADIWWDDDKDYNPSLKSRLTISKDTSKNQVVLTMTNMDTVDTATYYCARTYYSNYEYYGMDYWGQGTLVTVSS VL: DIVMTQSPDSLAVSLGERATINCRSSQTIALSNGNTYLEWYQQKPGQPPKLLIYKVSNRFSGVPDRFSGSGSGTDFTLTISSLQAEDVAVYYCFQGSHVPFTFGSGTKLEIKR",Relative binding activity,[1],1
same,EC50,[2],4.1 nM
"hGPN18-2_H2L3 VL Q95A (antibody, V domains shown) VH: QVQLVQSGPGLVQPTQTLTLTCSFSGFSLSTSVMGVGWIRQPSGKGLEWLADIWWDDDKDYNPSLKSRLTISKDTSKNQVVLTMTNMDTVDTATYYCARTYYSNYEYYGMDYWGQGTLVTVSS VL: DIVMTQSPDSLAVSLGERATINCRSSQTIILSNGNTYLEWYQQKPGQPPKLLIYKVSNRFSGVPDRFSGSGSGTDFTLTISSLQAEDVAVYYCFAGSHVPFTFGSGTKLEIKR",Relative binding activity,[1],0.79
same,EC50,[2],5.49 nM
"hGPN18-2_H2L3 VL H98A (antibody, V domains shown) VH: QVQLVQSGPGLVQPTQTLTLTCSFSGFSLSTSVMGVGWIRQPSGKGLEWLADIWWDDDKDYNPSLKSRLTISKDTSKNQVVLTMTNMDTVDTATYYCARTYYSNYEYYGMDYWGQGTLVTVSS VL: DIVMTQSPDSLAVSLGERATINCRSSQTIILSNGNTYLEWYQQKPGQPPKLLIYKVSNRFSGVPDRFSGSGSGTDFTLTISSLQAEDVAVYYCFQGSAVPFTFGSGTKLEIKR",Relative binding activity,[1],0.8
same,EC50,[2],5.69 nM
"hGPN18-2_H2L3 VL K55A (antibody, V domains shown) VH: QVQLVQSGPGLVQPTQTLTLTCSFSGFSLSTSVMGVGWIRQPSGKGLEWLADIWWDDDKDYNPSLKSRLTISKDTSKNQVVLTMTNMDTVDTATYYCARTYYSNYEYYGMDYWGQGTLVTVSS VL: DIVMTQSPDSLAVSLGERATINCRSSQTIILSNGNTYLEWYQQKPGQPPKLLIYAVSNRFSGVPDRFSGSGSGTDFTLTISSLQAEDVAVYYCFQGSHVPFTFGSGTKLEIKR",Relative binding activity,[1],0.31
same,EC50,[2],48.3 nM
"hGPN18-2_H2L3 VL G34A (antibody, V domains shown) VH: QVQLVQSGPGLVQPTQTLTLTCSFSGFSLSTSVMGVGWIRQPSGKGLEWLADIWWDDDKDYNPSLKSRLTISKDTSKNQVVLTMTNMDTVDTATYYCARTYYSNYEYYGMDYWGQGTLVTVSS VL: DIVMTQSPDSLAVSLGERATINCRSSQTIILSNANTYLEWYQQKPGQPPKLLIYKVSNRFSGVPDRFSGSGSGTDFTLTISSLQAEDVAVYYCFQGSHVPFTFGSGTKLEIKR",Relative binding activity,[1],1
same,EC50,[2],3.94 nM
"hGPN18-2_H2L3 VL F94A (antibody, V domains shown) VH: QVQLVQSGPGLVQPTQTLTLTCSFSGFSLSTSVMGVGWIRQPSGKGLEWLADIWWDDDKDYNPSLKSRLTISKDTSKNQVVLTMTNMDTVDTATYYCARTYYSNYEYYGMDYWGQGTLVTVSS VL: DIVMTQSPDSLAVSLGERATINCRSSQTIILSNGNTYLEWYQQKPGQPPKLLIYKVSNRFSGVPDRFSGSGSGTDFTLTISSLQAEDVAVYYCAQGSHVPFTFGSGTKLEIKR",Relative binding activity,[1],0.07
same,EC50,[2],18 nM
"hGPN18-2_H2L3 VL F101A (antibody, V domains shown) VH: QVQLVQSGPGLVQPTQTLTLTCSFSGFSLSTSVMGVGWIRQPSGKGLEWLADIWWDDDKDYNPSLKSRLTISKDTSKNQVVLTMTNMDTVDTATYYCARTYYSNYEYYGMDYWGQGTLVTVSS VL: DIVMTQSPDSLAVSLGERATINCRSSQTIILSNGNTYLEWYQQKPGQPPKLLIYKVSNRFSGVPDRFSGSGSGTDFTLTISSLQAEDVAVYYCFQGSHVPATFGSGTKLEIKR",Relative binding activity,[1],0.69
same,EC50,[2],7.66 nM
"hGPN18-2_H2L3 VL I29A (antibody, V domains shown) VH: QVQLVQSGPGLVQPTQTLTLTCSFSGFSLSTSVMGVGWIRQPSGKGLEWLADIWWDDDKDYNPSLKSRLTISKDTSKNQVVLTMTNMDTVDTATYYCARTYYSNYEYYGMDYWGQGTLVTVSS VL: DIVMTQSPDSLAVSLGERATINCRSSQTAILSNGNTYLEWYQQKPGQPPKLLIYKVSNRFSGVPDRFSGSGSGTDFTLTISSLQAEDVAVYYCFQGSHVPFTFGSGTKLEIKR",Relative binding activity,[1],0.75
same,EC50,[2],6.04 nM
"hGPN18-2_H2L3 VL L31A (antibody, V domains shown) VH: QVQLVQSGPGLVQPTQTLTLTCSFSGFSLSTSVMGVGWIRQPSGKGLEWLADIWWDDDKDYNPSLKSRLTISKDTSKNQVVLTMTNMDTVDTATYYCARTYYSNYEYYGMDYWGQGTLVTVSS VL: DIVMTQSPDSLAVSLGERATINCRSSQTIIASNGNTYLEWYQQKPGQPPKLLIYKVSNRFSGVPDRFSGSGSGTDFTLTISSLQAEDVAVYYCFQGSHVPFTFGSGTKLEIKR",Relative binding activity,[1],0.41
same,EC50,[2],20.7 nM
"hGPN18-2_H2L3 VL N33A (antibody, V domains shown) VH: QVQLVQSGPGLVQPTQTLTLTCSFSGFSLSTSVMGVGWIRQPSGKGLEWLADIWWDDDKDYNPSLKSRLTISKDTSKNQVVLTMTNMDTVDTATYYCARTYYSNYEYYGMDYWGQGTLVTVSS VL: DIVMTQSPDSLAVSLGERATINCRSSQTIILSAGNTYLEWYQQKPGQPPKLLIYKVSNRFSGVPDRFSGSGSGTDFTLTISSLQAEDVAVYYCFQGSHVPFTFGSGTKLEIKR",Relative binding activity,[1],0.82
same,EC50,[2],3.66 nM
"hGPN18-2_H2L3 VL G96A (antibody, V domains shown) VH: QVQLVQSGPGLVQPTQTLTLTCSFSGFSLSTSVMGVGWIRQPSGKGLEWLADIWWDDDKDYNPSLKSRLTISKDTSKNQVVLTMTNMDTVDTATYYCARTYYSNYEYYGMDYWGQGTLVTVSS VL: DIVMTQSPDSLAVSLGERATINCRSSQTIILSNGNTYLEWYQQKPGQPPKLLIYKVSNRFSGVPDRFSGSGSGTDFTLTISSLQAEDVAVYYCFQASHVPFTFGSGTKLEIKR",Relative binding activity,[1],0.91
same,EC50,[2],10.8 nM
"hGPN18-2_H2L3 VL P100A (antibody, V domains shown) VH: QVQLVQSGPGLVQPTQTLTLTCSFSGFSLSTSVMGVGWIRQPSGKGLEWLADIWWDDDKDYNPSLKSRLTISKDTSKNQVVLTMTNMDTVDTATYYCARTYYSNYEYYGMDYWGQGTLVTVSS VL: DIVMTQSPDSLAVSLGERATINCRSSQTIILSNGNTYLEWYQQKPGQPPKLLIYKVSNRFSGVPDRFSGSGSGTDFTLTISSLQAEDVAVYYCFQGSHVAFTFGSGTKLEIKR",Relative binding activity,[1],0.84
same,EC50,[2],4.22 nM
